Like-named read-outs stand apart in the source and are kept apart here. Blank lines part the entries; values can stand above or below the molecule they belong to.
Assays:
SufS (with SufE) = SufS (with SufE) (Escherichia coli, UniProt P77444); conditions: 50 mM MOPS pH 8.0, 150 mM NaCl, 2 mM TCEP, 500 μM L-cysteine, SufE 0.25-3 μM varied (not cysteine)
[1] = target: BODIPY-labeled SufE C51A/E107C (SufEDM) (E. coli) (UniProt P76194); experiment: fluorescence polarisation
SufS (Escherichia coli) [2] = target: SufS (Escherichia coli) (UniProt P77444); conditions: cited from earlier work
SufS (Escherichia coli), sequence (P77444 whole entry): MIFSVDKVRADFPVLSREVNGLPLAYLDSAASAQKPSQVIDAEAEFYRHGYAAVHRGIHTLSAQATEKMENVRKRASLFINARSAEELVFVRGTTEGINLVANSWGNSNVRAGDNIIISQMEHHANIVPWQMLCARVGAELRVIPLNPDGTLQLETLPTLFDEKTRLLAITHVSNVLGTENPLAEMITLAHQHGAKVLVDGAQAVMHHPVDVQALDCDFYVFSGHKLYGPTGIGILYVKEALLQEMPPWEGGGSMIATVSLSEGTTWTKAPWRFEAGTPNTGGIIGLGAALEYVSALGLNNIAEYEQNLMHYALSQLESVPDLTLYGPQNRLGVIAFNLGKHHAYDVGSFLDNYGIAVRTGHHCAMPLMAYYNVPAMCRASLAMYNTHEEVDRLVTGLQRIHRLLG

SufS (Escherichia coli) [3] = target: SufS (Escherichia coli) (UniProt P77444); conditions: cited from earlier work; remark: listed apart in the source
[4] = target: SufBC2D (Escherichia coli) (UniProt P77522); experiment: surface plasmon resonance; conditions: cited from earlier work
SufBC2D (Escherichia coli), sequence (P77522 whole entry, chain 1 of 3): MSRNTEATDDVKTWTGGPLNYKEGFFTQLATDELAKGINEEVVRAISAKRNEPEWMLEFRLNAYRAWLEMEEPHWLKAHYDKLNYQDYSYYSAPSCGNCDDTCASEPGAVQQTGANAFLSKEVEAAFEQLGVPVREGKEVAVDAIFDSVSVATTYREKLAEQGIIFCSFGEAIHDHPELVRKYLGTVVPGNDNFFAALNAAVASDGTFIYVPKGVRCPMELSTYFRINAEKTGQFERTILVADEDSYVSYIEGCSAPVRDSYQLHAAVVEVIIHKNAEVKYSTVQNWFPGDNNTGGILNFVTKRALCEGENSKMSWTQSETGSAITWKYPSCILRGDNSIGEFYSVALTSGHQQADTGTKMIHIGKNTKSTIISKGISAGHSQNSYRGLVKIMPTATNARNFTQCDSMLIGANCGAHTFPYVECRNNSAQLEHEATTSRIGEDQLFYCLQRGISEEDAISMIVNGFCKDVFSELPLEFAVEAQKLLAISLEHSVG
SufBC2D (Escherichia coli), sequence (P77499 whole entry, chain 2 of 3, further chain): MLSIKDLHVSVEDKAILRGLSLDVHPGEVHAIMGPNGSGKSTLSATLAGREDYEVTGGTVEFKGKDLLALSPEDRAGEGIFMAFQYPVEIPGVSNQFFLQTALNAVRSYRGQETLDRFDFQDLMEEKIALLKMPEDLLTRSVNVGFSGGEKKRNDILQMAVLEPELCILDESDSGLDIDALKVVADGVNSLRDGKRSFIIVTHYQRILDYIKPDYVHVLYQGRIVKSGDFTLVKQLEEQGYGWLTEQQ
SufBC2D (Escherichia coli), sequence (P77689 whole entry, chain 3 of 3, further chain): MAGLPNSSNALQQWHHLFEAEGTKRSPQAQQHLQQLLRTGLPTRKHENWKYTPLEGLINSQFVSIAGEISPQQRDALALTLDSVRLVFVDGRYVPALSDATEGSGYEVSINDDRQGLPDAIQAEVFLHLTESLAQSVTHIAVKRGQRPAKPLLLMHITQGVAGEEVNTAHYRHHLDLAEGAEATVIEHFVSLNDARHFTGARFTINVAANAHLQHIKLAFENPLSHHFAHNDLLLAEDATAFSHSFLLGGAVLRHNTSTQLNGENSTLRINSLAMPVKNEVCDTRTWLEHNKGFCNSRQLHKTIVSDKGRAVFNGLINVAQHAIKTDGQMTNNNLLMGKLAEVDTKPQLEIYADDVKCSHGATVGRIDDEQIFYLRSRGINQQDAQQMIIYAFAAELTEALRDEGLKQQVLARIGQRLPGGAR

[5] = target: SufBC2D scaffold complex (His6-SufBCD) (E. coli) (UniProt P77522)
SufBC2D scaffold complex (His6-SufBCD) (E. coli), sequence (P77522 whole entry, chain 1 of 3): as the sequence (P77522 whole entry, chain 1 of 3) above
SufBC2D scaffold complex (His6-SufBCD) (E. coli), sequence (P77499 whole entry, chain 2 of 3, further chain): as the sequence (P77499 whole entry, chain 2 of 3, further chain) above
SufBC2D scaffold complex (His6-SufBCD) (E. coli), sequence (P77689 whole entry, chain 3 of 3, further chain): as the sequence (P77689 whole entry, chain 3 of 3, further chain) above

[6] = target: SufBC2D scaffold complex (His6-SufBCD) (E. coli) (UniProt P77522); experiment: steady-state enzyme inhibition

SufS (with SufE), sequence (P77444 whole entry, one chain of several): as the sequence (P77444 whole entry) above

Molecule: N[C@@H](CS)C(=O)O [L-cysteine]
NDA-alanine fluorescence detection of L-alanine produced (SufS (with SufE)): Cysteine desulfurase activity of SufS was measured by quantifying the amount of L-alanine produced

Molecule: SufE (from UniProt P76194)
Kd (SufS (Escherichia coli) [2]): 0.5 µM | Kd (SufS (Escherichia coli) [3]): 5 µM | Kd [4]: 2.8 µM

B2: Carbamidomethylated SufE (SufE-alk) (natural protein)
chain: MALLPDKEKLLRNFLRCANWEEKYLYIIELGQRLPELRDEDRSPQNSIQGCQSQVWIVMRQNAQGIIELQGDSDAAIVKGLIAVVFILYDQMTPQDIVNFDVRPWFEKMALTQHLTPSRSQGLEAMIRAIRAKAAALS
modifications: C51 alkylated (carbamidomethylated with iodoacetamide)
Ki [6]: 2.5 µM

Further lines, results first:

Kd [1]: 1.6 µM
Molecule: SufBC2D scaffold complex (His6-SufBCD) (from UniProt P77522 1-495; P77499 1-248; P77689 1-423)

IC50 of inhibition of SufBC2D ATPase activity in the presence of 500 μM Mg2+-ATP [5]: 1 µM | Ki [6]: 1.8 µM
B1: SufE (wildtype) (natural protein)
chain: MALLPDKEKLLRNFLRCANWEEKYLYIIELGQRLPELRDEDRSPQNSIQGCQSQVWIVMRQNAQGIIELQGDSDAAIVKGLIAVVFILYDQMTPQDIVNFDVRPWFEKMALTQHLTPSRSQGLEAMIRAIRAKAAALS
